The target of assay [1] is HIV integrase N-terminal and catalytic core domains, IN(NTD-CCD)(F185K) (HIV). Put plainly: SEC-MALS. (SEC sorts molecules by how far they enter the pores of the column.)
Assay [2] concerns the target LEDGF/p75 integrase binding domain, LEDGF(IBD) (human). Put plainly: SEC-MALS.
Assay [3] concerns the target HIV integrase, full-length, IN(tetra) (C56S, F139D, F185H, C280S) (HIV). Put plainly: AUC.
For assay [4], the target named is LEDGF/p75 integrase binding domain, LEDGF(IBD) (human). Put plainly: AUC.
In assay [5] the target is LEDGF/p75 C-terminal fragment, LEDGF(Cterm), residues 325-530 (human) (UniProt O75475). As to the kind of experiment: SEC-MALS.
In assay [6] the target is IN(tetra)·LEDGF(IBD) complex of two IN and one LEDGF(IBD), IN2LEDGF1 (HIV | human). Put plainly: AUC.
For assay [7], the target named is T1, LEDGF/p75 C-terminal fragment, LEDGF(Cterm), residues 325-530 (human, UniProt O75475 325-530).
T1 sequence: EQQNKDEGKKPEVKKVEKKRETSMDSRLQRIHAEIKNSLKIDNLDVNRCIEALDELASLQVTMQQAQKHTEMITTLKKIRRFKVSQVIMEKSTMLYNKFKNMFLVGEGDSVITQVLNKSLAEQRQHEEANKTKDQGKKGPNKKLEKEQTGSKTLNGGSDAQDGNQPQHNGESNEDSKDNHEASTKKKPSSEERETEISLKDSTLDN
Put plainly: SEC-MALS.

For orientation: stoichiometry N means the number of molecules, sites or subunits per partner or assembly. Turning to “HIV integrase N-terminal and catalytic core domains, IN(NTD-CCD)(F185K) (domain or fragment)”, the stoichiometry N in assay [1] was 2; in assay [2] it was 1 IN:LEDGF. As a reminder, the Kd is a measure of binding affinity in units of concentration. Read a high Kd as a looser complex. As to “HIV integrase, full-length, IN(tetra) (C56S, F139D, F185H, C280S) (enzyme)”, the stoichiometry N in assay [2] and in assay [4] was 2 IN:LEDGF throughout. The molecule further returned a Kd in assay [3] of 9.3 µM. “HIV integrase, full-length, IN(tetra)(D116N) (enzyme)”: the stoichiometry N in assay [5] was 1 IN:LEDGF.

On to “IN(tetra)·LEDGF(IBD) complex of two IN and one LEDGF(IBD), IN2LEDGF1”, for which the Kd in assay [6] amounted to 8.9 µM.

B1: HIV integrase, full-length, wild-type (enzyme)
chain: FLDGIDKAQEEHEKYHSNWRAMASDFNLPPVVAKEIVASCDKCQLKGEAMHGQVDCSPGIWQLDCTHLEGKVILVAVHVASGYIEAEVIPAETGQETAYFLLKLAGRWPVKTVHTDNGSNFTSTTVKAACWWAGIKQEFGIPYNPQSQGVIESMNKELKKIIGQVRDQAEHLKTAVQMAVFIHNFKRKGGIGGYSAGERIVDIIATDIQTKELQKQITKIQNFRVYYRDSRDPVWKGPAKLLWKGEGAVVIQDNSDIKVVPRRKAKIIRDYGKQMAGDDCVASRQDED
B1: the “stoichiometry N” value in assay [7] is 1 IN:LEDGF.

Source of the values: paper PMC2888443 (The Journal of Biological Chemistry, 2010).
